# Laboratory results published in patent publication US5204445A, “Peptides and antibodies that inhibit integrin-ligand binding” (The Scripps Research Institute, priority 1989, dated 1993).
# Experiments:
# [1] = target: T1, alpha subunit (GPIIb) (Homo sapiens, UniProt P05106+P08514); assay: Chemical crosslinking of 125I-labeled RGD peptide to platelets (BS3), SDS-PAGE and autoradiography; type: binding; settings: 125I-Fn-7 20 μM, thrombin-stimulated platelets, 45 min at 22° C., BS3 0.2 mM
# T1 construct: Platelets were isolated from fresh human blood collected into acid/citrate/dextrose; endogenous in cells; host or cells: washed human platelets, thrombin-stimulated
# [2] = target: T2, beta subunit (GPIIIa) (Homo sapiens, UniProt P05106+P08514); assay: as above; type: binding; settings: 125I-Fn-7 20 μM, thrombin-stimulated platelets, 45 min at 22° C., BS3 0.2 mM
# T2 construct: Platelets were isolated from fresh human blood collected into acid/citrate/dextrose; endogenous in cells; host or cells: washed human platelets, thrombin-stimulated or nonstimulated
# Method: FIG. 2 illustrates the results of the crosslinking of an RGD peptide to discrete sites in the beta subunit (GPIIIa) of an Integrin adhesion receptor. The ^125 I-labeled RGD peptide, Fn-7 (20 μM), was bound to platelet (6×10^8 /ml) for 45 min at 22° C., and crosslinked with BS^3 (0.2 mM). The fragmentation patterns after proteolysis were analyzed by SDS-PAGE [Laemmli, Nature. 227:680 (1970)] and autoradiography. […] Lanes 2-7, GPIIIa:Fn-7 bands were excised from gels, subjected to proteolysis and then analyzed by SDS-PAGE (15% gels, reducing conditions). For lanes 2-5, GPIIIA:Fn-7 bands were excised and digestions with V-8 protease were performed within the gel slices as described in Cleveland et al., J. Biol. Chem., 252:1102 (1977).
# Platelet binding of Fn-7 followed the protocols previously described for measuring platelet interactions with adhesive proteins and with this and other peptides. See, Ginsberg et al., J. Biol. Chem., 260:3931-3936 (1985); Lam et al , Fed. Proc. Fed. Am. Soc. Exp. Biol., 44:1126 (1985); and Marguerie et al., supra. […]
# The cell-bound ligand was recovered by centrifugation through 20% sucrose, and the cells were extracted in PBS containing 1% Nonidet P40 and […] N-ethylmaleimide (Sigma). […] The cross-linked samples were analyzed by electrophoresis (SDS-PAGE) on polyacrylamide vertical slab gels in the buffer system of Laemmli, Nature, […] (1970). […]
sequence,measurement,setting,value
"KYGRRGDS [Fn-7, RGD-peptide with lysine for crosslinking and tyrosine for radioiodination]",crosslinking to the alpha subunit (GPIIb),[1],more minor crosslinking
same,crosslinking to the beta subunit (GPIIIa),[2],predominance
